Test: yeast display, Sf9 membrane polyspecificity reagent, FACS + sequencing; frameworks hold sequencing errors
Summary of the method: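 Polyreactivity labels are assigned by the sorting gate from which each nanobody was recovered. The gates were low and high (top ~1%), set on anti-HA fluorescence for expression and streptavidin fluorescence for reagent binding. Before sorting, galactose-induced (36–48 hours) yeast display cells were stained for 1 hour at 4 °C with 10% biotinylated, detergent-solubilized Sf9 membrane reagent.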

| Sequence | polyreactivity (PSR sort gate) |
| --- | --- |
| QVQLVESGGGLVQAGGSLRLSCAASGGIFSPNAMGWYRQAPGKERELVAAISSNGGSTNYADSVKGRFTISRDNAKNTVYLQMNSLKPEDTAVYYCAGLQKRRSYWRPFYWGQGTQVTVSS | low polyreactivity |
| QGQLVESGGGLVQAGGSLRLSCAASGRTFYVNAMGWYRQAPGKERELVAGISFSDGSTYYADSVKGRFTISRDNAKNSVYLQMNSLKPEDTAVYYCATVGAFDIYYGYGYWVQGTQVTVSS | low polyreactivity |
| QVQLVESGGGLVQAGGSLPLSCAASGLTIFVNAMGWYRQAPGKERELVATISGGGSTYYADSVKGRFTISRDNAKNTVYLQMNSLKREDTAVYYCNAADVGGPWWYPYTYNYWGQGTQVTVSS | low polyreactivity |
| QVQLVESGVGLVQAGGSLRLSCAASGSIFVNYAMGWYRQAPWKERELVAAITLRGGSTFYADSVKGRFTISRDNAKNTVYLQMHSLKPEDTAVYYCAASSLRYRAYKSLFDFWGQGTQVTVSS | low polyreactivity |
| QDQLVESGGCLVQAGGSLRLSCAASGRIIIGYVMGWYRQAPVKERELVATISYSGGSTYADSVKGRFTISRDNAKNTVYLLMNSLKPEDTAVYYCNALFAGHKYYTVTSKYDYWGQGTQVTLSS | high polyreactivity |
| QVQLVESGGGLVQAGGSLRLSCAASGRTLAENAMGWYRQAPGKERELVAAISSIGGRTYYADSVKGRFTISRDNAKNTVYLQMNSLKPEDTAVYYCAATLRTKSARYNYWGQGTQVTVSS | high polyreactivity |
| QVQLVESGGGLVQAGGSLRLSCAASGSIFPFNAMGWYRQAPGKERELVAAISRRGTGTYYADSVKGRFTISRDNAKNTVYLQMNSLKPEDTAVYYCNAVVRAGHYDYWGQGTQVTLSS | high polyreactivity |
| QVQLVESGGGLVQAGGSLRLSCAASGRLFKDNAMGGYRQAPGKERELVATIDSGGDTNYADSVKGRFTISRDNAKNTVYLQMNSLKPEDTAVYYCNTAGRGGIPSGFDYWGQGTQVTVSS | low polyreactivity |
| QVQLVESGGGLVQAGGSLRLSCAASGSTYSYYAMGWYRQAPGKERELVAAITSSGSSTYYADSVKARFTISRDNAKNTVYLPMISLKPEDPAVYYCAAGRYRYTYRYFTAWYGYWGQGTQVTVSS | high polyreactivity |
| QVQLVESGGGLVQAGGSLRVSCAASGYTFVIYAMGWYRQAPGKERELVAAITTIGGRTYYADSVKGRFTISRDNAKNTVYLQMYSLKPEDTAVYYCATAAVTPVWYDYWGQGTQVTVSS | low polyreactivity |
| QVQLVESGGGLVQAGGSLRLSCAASGRTLATYAMGWYRQAPGKERELVAAISTSGTRTYYADSVKGRFTISRDNAKNTVYLQMNSLKPEDTAVYYCNAGPGYDYWGHGTQVTVSS | high polyreactivity |
| QVQLVESGGGLVQAGGSLRLSCAASGFTFAFYTMGWSRPAPGKESELVAGITRSGTNTYYADSLTGRFTISRDNAKNTVYLLLNSLTPEDTAVYYCAAAIRPGMDYWGQGTQVTVSS | high polyreactivity |
| QVQLVESGGGLVQAGGSLRFSCAASGFTFSDYAMGWYRQAPGKEREFVAAITRRGGSTYYADSVKGRFTISRDNAKNTVYLQMNSLKPEDTAVYYCAKRGLRSYSFPLWQGYDYWGQGTQVTVSS | high polyreactivity |
| QVKLVESGGGLVQAGGSLRLSCAASGRTFGSYAMGRYRQAPGKERELVAAITTDASTNYADSVKGRFTISRDNAKNTIYLQMNSLKPEDTAVYYCAKRNRTYYGYWGQGTQVTVSS | low polyreactivity |
| QVQLVESGGGLVQAGGSLRLSCAASGRTFRANAMGWSRQAAGKERELVAAITWDGGSTYYADSVKGRFTISRDNAKNTVYLQMNSLKPEDTAVYYCAAESWFLRWYRYDYWGQGTQVTVSS | low polyreactivity |
| QVQHVESGGGLVQAGGSLRLICAASGSTFGNYAMGWYRQAPGKERELVAAISTSGGSTYYADSVKGRFTISRDNAKNTVYLQMNSLKPEDTAVYYCANRLVRGRSRAVSDYYWGQGTQVTVSS | high polyreactivity |
| QVQLVESGGGLVQAGGSLRLSCAASGRTFYYYDMGWYRQAPGKERELVAAIRRSGGSTYYADSVKGRFTISRDNAKNTVYLQMNSLKPEDTAVYYCAAGRRYSGSYDYRGQGTQVTVSS | high polyreactivity |
| QVQLVESGGGLVQAGGSLRLRCAASGFNSVRNAMGWYRPAPGKEREFVAAISGGGGSTYYADSVKGRFTISRDNAMNTVYLQMNSLKPEDTAVYYCAPRSYWGQGTQVTVSS | high polyreactivity |
| QVQLVESGGGLVQAGGSLRLSCAASGNIFDGNSMGWYRQAPGKERELVAAITGRGGGTYYADSVKGRFTISRDNAKNTVYLQMNSLKPEDTAVYYCAAPWVVRRTAYDYWGQGTQVTVSS | high polyreactivity |
| QVQLVESGGGLVQAGGSLRLSCAASGSTFPANAMGWYRQAPGKERELVATISWSGGRTYYADSVKGRFTISRDNAKNTVYLQMNSLKPEDTAVYYCAKGYYWLSTYGDSRYGYWGQGTQVTVSS | high polyreactivity |
| QVQLVESGGGLVQAGGSLRLSCAASGLIFSRNAMGWYRQAPGKERELVAAISTGGSTYYADSVKGRFTISRDNAKNTVYLQMNSLKPEATAVYDCAAAPGYIYEYWGQGTQVTVSS | low polyreactivity |
| QVQLVESGGGLVQAGGSLRLSSAASGNIFYTNTMGWYRQAPGKERELVAAITSGGTTYYADSVKGRFTISRDNAKNTVYLQMNSLKPEDTAVYYCAVRSSKWSWIYYYWGQGTQVTVSS | high polyreactivity |

| Sequence | polyreactivity (PSR sort gate) |
| --- | --- |
| QVQLVESGGGLVQAGGSLRLSCAASGLTFWGNAMGWYRQAPGKEREFVAGIDRSSVSTYADSVKGRFTISRDNAKNTVYLQMNSLKPEDTAVYYCAVDEYGIWVGWVPYATFGMNYWGQGTQVTVSS | high polyreactivity |
| QVQLVESGRGLDQAGGSLRLSCAASASTFAWYDMGCYRHAPGKEREFVAAIDYGGGSTYADSVKGRFTISRDNAKNTVYLQMNSLKPEDTAVYYCNADNWVYLYDYWGQGTQVTVSS | low polyreactivity |
| QVQLVESGGGLVQAGGSLRLSCAASGRILRTYAMGWYRQAPGKERELVAAITRGGSTYYADSVKGRFTISRDNAKNTVYLQMNSLKPEDTAVYYCNKYKSPYITLSQYGYWGQGTQVTVSS | high polyreactivity |
| QVQLVESGGGLVQAGGSLRLSCAASGLTFYPNAMGWYRPAPGKEREFVASISISGRTYYADSVKGRFTISRDNAKNTVYLQMNSLKPEDTAVYYCAARYVRSGLYRKYDYWGQGTQVTVSS | high polyreactivity |
| QVQLVESGGGLVQAGGSLRLICAASGRIFRRYAMGWYRQAPGKERELVASISLSGGSTYYADSVKGRFTISRDNAKNTVYLQMNSLKPEDTAVYYCAAVRPGVSNYGHWGQGTQLTVSS | high polyreactivity |
| QVQLVESGGGLVQAGGSLRLSCAASGITFRGNAMGWYRQAPGKERELVAAISRRGGNTNYADSVKGRFTISRDNAKNTVYLQMNSLKPEDTAVYYCAADITTYRRGRYEYEYWGQGTQVTVSS | high polyreactivity |
| QVQLVESGGGLVQAGGSLRLSCAASGGIFRSYTMGWYRQAPGKERELVAAISSGASTSYADSVKGRFTISRDNAKNTVYLQMNSLKPEHTAVYYCAVGVLYAGYFYRYRYYYWGQGTQVTVSS | high polyreactivity |
| QVQLVESWGGLVQAGGSLRLSCSASGRTLRGYAMGWYRQAPGKERELVAAISKGGGSTFYADSVKGRFTISRDNAKNTVYLLMISLKPEDTAVYYCAARARYTRRGRHYDYWGQGTQVTVSS | high polyreactivity |
| QVQLVESGGGLVQAGGSLRLSCAASGSIFQKYTMGWYRQAPGKERELVAAITRSGGSTYYADSVKGRFTISRDNAKNTVYLQMNSLKPEDSAVYYCNKRYIPWAYDYWGQGTQVTVSS | high polyreactivity |
| QVQLVESGGGLVQAGGSLRLSCAASGRIFSSYAMGWYRQAPGKERELVAAISRSGARTYYADSVKGRFTISRDNAKNTVYLQMNSLKPEDTAVYYCAAVTVAGYDYWGQGTQVTVSS | high polyreactivity |
| QVQLVESAGGLVQAGGSLRLSCAASGSTLYGYVMGWYRQAPGKERELVAAITWSSGYTYYADSVKGRFTISRDNAKITVYLQMNILKPVDTAVYYCAVRDRSPYGYYYWGQGTQVTVSS | low polyreactivity |
| QVQLEESGGGLVQAGGSLRLSCAASGRTFDVYAMGWYRQAPGKEREFVAAINWSSSSTYYADSVKGRFTISRDNAKNTVYLQMNSLKPEDTAVYYCAARYKRYTRFDYWGQGTQVTVSS | high polyreactivity |
| QVQLVESGGGLVQARRSLRLSCAASGFTVKRYAMGWYRPEPGKEREFVAAITRGGGSTYYADYVKGRFTISRDNAKNTVYLQMNSLKPEDTAVYYCNARSRSYVPYYYWGQGTQVTVSS | high polyreactivity |
| QVQLVESGGGLVQAGGSLRLSCAASGRTFYQYDMGWYRQAPGKERDLVAAIDWSGGSTYYADSVKGRFTISRDNAKNTVYLQMNSLKPEDTAVYYCNADAYPHPVVGYDYWGQGTQVTVSS | low polyreactivity |
| QVQLVESGGGLVQAGGSLRLICAASGRTFFRYGMGWYRQAPGKEREFVAAITRSGTTTYYADSVKGRFTISRDNAKNTVYLQMNSLKPEDTAVYYCDAQRAAPVDGKSDYWGQGTQVTLSS | low polyreactivity |
| QVQLVESGGGLVQAGGSLRLSCAASGRTFRVYAIGWYRQAPGKEREFVATISVRGGSTYYADSVKGRFTISRDNAKNNVYLQMNSLKPEDTAVYFCAADSYPYVYALYDYWGQGTQVTVSS | low polyreactivity |
| QVQVVESGGGLVQAGGSLRLSCAASGSTFYSNAMGWYSQAAGQERELVAAITWSDGSTYYADSVMGRFTISRDNAKHTVYVQMNSHKPEDTALYYCSATQAEVVWTPVYVEYDYWGQGTQVTVSS | high polyreactivity |
| QVQLVESGGGLVQAGGSLRLICAASGSIFSTYTMGWYRQAPGKERELVAAITRSGGSTYYADSVKGRFTISRDNAKNTVYLQMNSLKPEDTAVYYCAAKGKRLRSYYQRYYYWGQGTQVTVSS | high polyreactivity |
| QVQLVESGGGLVQAGGSLRLSCAASGRTFGYYAMGWYRQAPGKEREFVAAISSSGGSTYYADSVKGRFTISRDNAKNTVYLQMNSLKPEDTAVYYCAARRNYFYGYYYWGQGTQVTVSS | high polyreactivity |
| QVQLVDSGGGLVQAGGSLSLSCAASGYTFDTNAMGWYRQAPGKERELVAAIDFSGGTTYADSVKGRFTISRDNAKNTVYLQMNSLKPEDTAVYYCSADHSGGSRYDYWGQGTQVTVSS | low polyreactivity |
| QVQLVESGGGLVQAGGSLRLSCAASGRIFNPNAMGWDRQAPGKERELVAAISTSGDSTYADSVKGRFTISRDNAKNTVYLQMNSLKPEDTAVYYCAATSGRRTTRWGRYGYWGQGTQVTVSS | high polyreactivity |

— the nanobody polyreactivity screen of Harvey et al. (2022)
